Positions count from the first letter of the chain named.
B1: antibody 4441 (antibody, V domains shown)
VH: EVQLVESGGGLVQPGRSLRLSCAASGLTFEDYAMHWVRQPPGKGLEWVSGVSWNSGTIGYADSVKGRFTISRDNAKNSLYLHMRSLGAEDTAMYYCAKDMGGRFSFFSLENDAFDIWGQGTMVIVSS
VL: SYELTQPPSVSVSPGQTARITCSGDALPKQSTYWYQQKPGQAPVLVIYKDIERPSGIPERFSGSSSGTTVTLTISGVQAEDEADYYCQSADSSDTYVFGTGTKVTVL
B2: antibody 1823 (antibody, V domains shown)
VH: EVQLVESGGGLVKPGGSLRLSCVASGFSFGLYTMNWVRQAPGKGLEWVSYISSSTSYKYYADSVKGRVSVSRDNAKNSLYLQLNGLRVEDTAVYYCARDGYCPNGICTYYGMDVWGQGTTVTVSA
VL: EIVMTQSPATLSVSPGERATLSCRASQSVSSNLAWYQQKPGQAPRLLIYGASTRATGIPARFSGSGSGTEFTLTITGLQSEDFAVYYCQQYDKWPPAYSFGQGTKVEIK
B3: antibody 1871 (antibody, V domains shown)
VH: B2 VH with G30S, L31I, T33S, T55S, V68F, V88A, N104K, I106V
VL: EIVMTQSPATLSVSPGERVTLSCRASQSVRSRLAWFQQKPGQAPRLLIYDASIRATGIPARFSGSGSGTEFTLIISSLQSEDFAVYYCQQYDNWPPAYTFGQGTKLEIK
B4: antibody 1867 (antibody, V domains shown)
VH: B2 VH with V23A, G30S, L31T, T55S, K58R, K65R, V68F, L83M, I106V, A125S
VL: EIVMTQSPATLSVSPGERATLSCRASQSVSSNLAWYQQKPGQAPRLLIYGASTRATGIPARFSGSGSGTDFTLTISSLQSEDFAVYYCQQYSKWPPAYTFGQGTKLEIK
B5: antibody 1872 (antibody, V domains shown)
VH: B2 VH with V23A, G30S, T55S, K58R, V68F, S78A, L83M, V88A, N104R, I106V
VL: B3 VL with V19A, R30G, F36Y, S52T, E70D, I74T, S77G, Q90R, D92N
B6: antibody 1888 (antibody, V domains shown)
VH: B2 VH with V23A, S28T, G30S, L31S, T33S, T55S, V68F, N104K, I106V
VL: B3 VL with V19A, A43P, A60D, S77G
B7: antibody 1859 (antibody, V domains shown)
VH: EVQLVESGGGLVKPGGSLRLSCAASGFSFNTYTMNWVRQAPGKGLEWVSYISSSSSYKYYSDSVKGRFSVSRDNAKKSLYLQMNGLRAEDTAVYYCARDGYCPNGVCTYYGMDVWGQGTTVTVSL
VL: B2 VL with T76S, Y87F, D92S, S99T, V106L
B8: antibody 1856 (antibody, V domains shown)
VH: B7 VH with Q3R, N30S, T31L, K58R, S61A, K77N, S78T, Q82E, N104R, L125A
VL: EIVMTQSPATLSVSPGERATLSCRASQTIGIRLAWYQQKPGQAPRLLIYDATIRATGIPARFSGSGSGTDFTLTISGLQSEDFAVYYCQRYNNWPPVYTFGQGTKLEMK
B9: antibody 2706 (antibody, V domains shown)
VH: QVQLVQSGAEVKKPGSSVKVSCKASGGTFSTYAISWVRQAPGQGLEWMGGIIPLFATANYAQNFQGRVTITADKSTSTAYMELSSLRSEDTAVYYCASVRLHLEELSLSHQGDYYYGLDVWGQGTTVTVSS
VL: DIQMTQSPSSLSASVADRVTITCQASQDISHYLNWYQQKPGKAPQLLIYDASKLETGAPSRFSGSGSGTDFTFTISSLQPEDIATYYCQQYDHLPLTFGGGSKVEIK
B10: antibody 1959 (antibody, V domains shown)
VH: QVQLVQSGTEVKKPGSSVRVSCQASGDTFTSHAIIWIRQAPGQGLEYLGRIIPVLDITNAAQRFLGRLTLTADKSTTTAYMELSSLRSEDTAVYYCARAPFGLIVMYDHWGQGTLVTVTA
VL: EIVLTQSPGTLSLSPGERATLSCRASQSVSGNFLAWYQQKPGQAPRLLIHETSKRATGIPDRVSGGGSGTDFTLTISRLEPEDFAVYHCQQYGTTAVTFGQGTRLDMK
B11: antibody 1969 (antibody, V domains shown)
VH: QVQLVQSGAEVKKPGASVKVSCKASGYSFTDYYIHWVRQAPGQGLEWMGIIKPSAGATVYAQKFRGRVSMTSDTSTGTVYMELSGLKSEDTAVYYCARDYNRSFDFWGQGTLVTVSS
VL: QSVLTQPPSVSAAPGQTVTISCAGSTSNIGKNYVSWYQHLPGTAPKLLIYDNIKRPSGIPDRFSGSTSGTSATLGITELQTGDEADYYCGTWDSSLSAYVFGTGTKVTVL
B12: antibody 1963 (antibody, V domains shown)
VH: QVQLVQSGAEVKKPGASVKVSCKASGYTFTSNYIHWLRQAPGQGLEWMGIIKPSGTSTISAQKFRGRVAMTRDTSTSTVYMELSSLRFEDTAIYYCARDAKRALETWGQGTMVTVSS
VL: QSVLTQPPSVSAAPGQKVTISCSGSSSNIGNNYVSWYQQLPGTAPKLLIYDNNKRPSGIPDRFSGSRSGTSATLGITGLQTGDEADYYCGTWDSSLSAWVFGGGTKLTVL
B13: antibody 1814 (antibody, V domains shown)
VH: QVQLQESGPGLVKPSETLSLTCSVSGGSINYYYWSWIRQTPGQGLEWIGFIYSSGTTNYNPSLKSRVTMSKDTAKKQFSLKLTSVTAADSAVYYCARHSRSCTNGVCQTYYYYALDVWGHGTTVTVSS
VL: QSVLTQPPSVSGAPGQRVTISCTGSGSNIGSGYDVHWYQQLPGRAPKLLIYRNRNRPSGVPDRFSGSKSGTSASLAIAGLQSEDEGDYFCQSYDGRLGESAVFGGGTRLTVL
B14: antibody 1815 (antibody, V domains shown)
VH: B13 VH with Q39K, T40S, Q43K, T68S, K71I, D72G, A74S, K76R, T83S
VL: QSVLTQPPSVSGAPGQRVTISCTGSSSNIGAGYDVHWYQQLPGTAPKLLIYANTHRPSGVPDRFSASKSGTSASLAIAGLQAEDEGDYYCQSYDGSLSESAVFGGGTRLTVL
B15: antibody 1864 (antibody, V domains shown)
VH: B13 VH with S23T, T40P, Q43K, K71V, T73S, A74S, K76S, T83S
VL: B14 VL with A52G, T54S, H55N, A82P, A101G
B16: antibody 1870 (antibody, V domains shown)
VH: B13 VH with T40P, Q43K, K71V, A74S, K76N, T83S
VL: B14 VL with A52G, T54S, H55N, A101G
B17: antibody 1851 (antibody, V domains shown)
VH: B13 VH with S23T, T40S, Q43K, K71V, T73S, A74S, K76S, T83S
VL: B14 VL with A52G, T54S, H55N, A82P, A101G
B18: antibody 1915 (antibody, V domains shown)
VH: QVQLVESGGGVVQPGRSLRLSCAASGFTFSSYAMHWVRQAPGKGLEWVAVISYDGSNKYYADSVKGRFTISRDNSKNTLYLQMDSLRAQDTAVYYCATPRDMFSSGWSSPFDYWGQGTLVTVSS
VL: DIQMTQSPSSLSASVGDRVTITCQASQDISIYLTWYQQKPGKAPKLLIYGASNLEVEVPSRFSGSGSGTEFTLTISSLQPEDFATYFCQHSDDLPVTFGGGTKVEVK
B19: antibody 1826 (antibody, V domains shown)
VH: QVQLQESGPGLVKPSETLSLTCSVTGGSTNYYYWSWIRQPPGKGLEWIGYIYYSGTTNYNPSLKDRVTMSVDKSKTQLSLKLNSVTAADTAVYYCARHARHCTNGVCQTYYYYGLDVWGLGTTVAVSA
VL: QSVLTQPPSVSAAPGQRVTISCSGSSSNIGAGYDVHWYQHLPGTAPKLLIYNNNNRPSGVPDRFSASRSGTSASLAITGVQTEDEADYYCQSFDGRLSESGVFGGGTKLTVL

Experiments:
[1] = molecular target: T1, Receptor-binding domain (RBD) of the SARS-CoV-2 spike protein, WA01/2020 strain (SARS-CoV-2, WA01/2020 strain, UniProt P0DTC2 319-541); test: SPR (Biacore 8K), antigen immobilized, antibody injected
[2] = molecular target: SARS-CoV-2 spike protein, B1.1.7 (alpha variant), borne on lentiviral pseudovirus (SARS-CoV-2, B1.1.7); test: cell-based or functional assay
[3] = molecular target: SARS-CoV-2 spike protein, B1.351 (beta variant), borne on lentiviral pseudovirus (SARS-CoV-2, B1.351); test: cell-based or functional assay
[4] = molecular target: T2, SARS-CoV-2 spike protein on live virus, strain USA-WA1/2020 (SARS-CoV-2, WA01/2020 strain, UniProt P0DTC2 14-1273); test: cell-based or functional assay
[5] = molecular target: T1, Receptor-binding domain (RBD) of the …; test: dose-response ELISA on coated antigen
[6] = molecular target: T2, SARS-CoV-2 spike protein on live virus, …; test: cell-based or functional assay; remark: listed apart in the source
[7] = molecular target: T1, Receptor-binding domain (RBD) of the …; test: ELISA, antibody blocks RBD binding to human ACE2
[8] = molecular target: T1, Receptor-binding domain (RBD) of the …; test: ELISA screening, antibody concentration not given

Binder | Pseudo Neut, B1.1.7 IC50 (pM) [2] [pM] | Pseudo Neut, B1.351 IC50 (pM) [3] [pM] | binding result [8] | other results
B1 | ~13 | 2320 | – | Kd [1]: 0.022 nM; IC50, live virus micro-neutralization WA1/2020 [4]: 0.058 nM; EC50 [5]: 0.05 nM; Live Neut, WA1/2020 IC50 (pM) [6]: 85 pM; IC50 [7]: 1.02 nM
B2 | 850 | 133 | – | –
B3 | 110 | 208 | no binding (tested: not printed) | –
B4 | – | – | no binding (tested: not printed) | –
B5 | 130 | 75 | no binding (tested: not printed) | –
B6 | – | – | no binding (tested: not printed) | –
B7 | 230 | 73 | no binding (tested: not printed) | –
B8 | – | – | no binding (tested: not printed) | –
B9 | 13 | > 18000 | – | Kd [1]: 0.029 nM; EC50 [5]: 0.017 nM; Live Neut, WA1/2020 IC50 (pM) [6]: 171 pM; IC50 [7]: 0.51 nM
B10 | – | – | no binding (tested: not printed) | –
B11 | – | – | no binding (tested: not printed) | –
B12 | – | – | no binding (tested: not printed) | –
B13 | 237 | 32 | no binding (tested: not printed) | –
B14 | – | 345 | no binding (tested: not printed) | –
B15 | – | – | no binding (tested: not printed) | –
B16 | – | – | no binding (tested: not printed) | –
B17 | – | – | no binding (tested: not printed) | –
B18 | – | – | no binding (tested: not printed) | –
B19 | – | – | no binding (tested: not printed) | –

Reference: patent US20230382979A1 (ADAPTIVE BIOTECHNOLOGIES, published 2023)
